Experiments:
[1] = Plasma pharmacokinetics of EC0565 after a single intravenous or subcutaneous dose; details: for Tmax: sc
Protocol: The bioavailability of EC0565 after subcutaneous injection was measured. Female Lewis rats with rounded tip jugular vein catheters (Harlan) were fed regular rodent diet. The treated animals were given a single intravenous or subcutaneous dose of EC0565 at 2 μmmol/kg. […] For subcutaneous administration FIG. 18b, whole blood samples (300 μl) were collected from the animals at 1 min, 10 min, 30 min, 1 h, 2 h, 3 h, 4 h, 8 h, and 12 h post injection. The blood samples were placed into anti-coagulant tubes containing 1.7 mg/mL of K3-EDTA and 0.35 mg/mL of N-maleoyl-beta-alanine (0.35 mg/mL). Plasma samples were obtained by centrifugation for 3 min at ˜2,000 g and stored at −80° C. The amount of EC0565 and its released base drug (everolimus) were determined by HPLC using the EC0565 injection solution as the standard.

physchem = details: pH 7.4
[2] = tested on: Proliferating Cell Nuclear Antigen (PCNA); assay: Western blot of PCNA in synchronized RAW264.7 cells; assay type: cell-based, murine; details: 1-1000 nM; EC0565 2 h treatment, 48-h chase; everolimus 48 h
Protocol: To study anti-proliferative effect of EC0565, FR-positive murine macrophage-like RAW264.7 cells (serum deprived for 36 h for synchonization) were given a 2 h treatment of EC0565 (1, 10, 100, and 1000 nM) without or with 1000× excess of EC17 (as a folate competitor) followed by a 48-h chase in drug-free medium. For comparison, the cells were also treated for 48 h with everolimus (1, 10, 100, and 1000 nM). […] Western blot analysis was carried out on whole cell lysates using a monoclonal antibody specific for PCNA (PC10, Cell Signaling, Danvers, Mass.). After incubation with a peroxidase-conjugated secondary antibody, the signals were visualized using SuperSignal West Pico Chemiluminescent Substrate system (ThermoScientific, Waltham, Mass.) following the manufacturer's instructions. The images were acquired using a G:BOX Chemi HR 16 gel imaging system (Syngene, Frederick, Md.).

[3] = cited from earlier work
[4] = rats; cited from earlier work
[5] = female, Lewis, rat, in vivo, 2 μmmol/kg

SMILES | bioavailability [1, 5] [%] | Tmax [1, 5] [h] | free drug (everolimus) exposure/release in plasma, based on AUC ([1]; single intravenous dose of EC0565 at 2 μmmol/kg) | free drug (everolimus) exposure/release in plasma, based on AUC ([1]; single subcutaneous dose of EC0565 at 2 μmmol/kg) [%] | solubility (physchem) [µM] | Tmax ([1]; female, Lewis, rat, in vivo) [h] | effect on PCNA activities [2] | water solubility [3] [µM] | oral bioavailability [4] [%]
CO[C@H]1C[C@@H]2CC[C@@H](C)[C@@](O)(O2)C(=O)C(=O)N2CCCC[C@H]2C(=O)O[C@H]([C@H](C)C[C@@H]2CC[C@@H](OCCOC(=O)OCCSSC[C@H](NC(=O)[C@H](CCC(=O)NC[C@H](O)[C@@H](O)[C@H](O)[C@H](O)CO)NC(=O)[C@H](CCC(=O)O)NC(=O)[C@H](CCC(=O)NC[C@H](O)[C@@H](O)[C@H](O)[C@H](O)CO)NC(=O)[C@H](CCC(=O)O)NC(=O)[C@H](CCC(=O)NC[C@H](O)[C@@H](O)[C@H](O)[C@H](O)CO)NC(=O)CC[C@H](NC(=O)c3ccc(NCc4cnc5nc(N)[nH]c(=O)c5n4)cc3)C(=O)O)C(=O)O)[C@H](OC)C2)CC(=O)[C@H](C)/C=C(\C)[C@@H](O)[C@@H](OC)C(=O)[C@H](C)C[C@H](C)/C=C/C=C/C=C/1C [EC0565] | ~128 | ~1 | approximately 18% | ~17 | > 1000 | – | – | – | –
CO[C@H]1C[C@@H]2CC[C@@H](C)[C@@](O)(O2)C(=O)C(=O)N2CCCC[C@H]2C(=O)O[C@H]([C@H](C)C[C@@H]2CC[C@@H](OCCO)[C@H](OC)C2)CC(=O)[C@H](C)/C=C(\C)[C@@H](O)[C@@H](OC)C(=O)[C@H](C)C[C@H](C)/C=C/C=C/C=C/1C [everolimus] | – | – | – | – | – | ~1 | inhibited PCNA activities | 1 to 10 | ~12
